T1: endoglin (CD105) (UniProt P17813 26-586)
T1 chain: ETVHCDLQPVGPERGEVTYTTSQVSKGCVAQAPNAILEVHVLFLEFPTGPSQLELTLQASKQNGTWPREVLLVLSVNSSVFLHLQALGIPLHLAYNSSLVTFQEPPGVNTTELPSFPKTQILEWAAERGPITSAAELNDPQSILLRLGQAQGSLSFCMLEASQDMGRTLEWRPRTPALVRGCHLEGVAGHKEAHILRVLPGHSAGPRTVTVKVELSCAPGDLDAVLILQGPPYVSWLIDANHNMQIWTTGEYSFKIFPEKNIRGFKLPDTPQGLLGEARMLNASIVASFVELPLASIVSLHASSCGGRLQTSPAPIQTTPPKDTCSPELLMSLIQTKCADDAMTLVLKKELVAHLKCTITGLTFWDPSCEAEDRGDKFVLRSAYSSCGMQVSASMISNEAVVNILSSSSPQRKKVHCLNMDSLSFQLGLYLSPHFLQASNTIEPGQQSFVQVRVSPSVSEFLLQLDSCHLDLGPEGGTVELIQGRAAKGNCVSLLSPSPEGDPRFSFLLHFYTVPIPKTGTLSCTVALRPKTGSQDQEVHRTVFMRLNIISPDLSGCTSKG

B1: Endoglin (receptor)
chain: T1 chain
B2: endoglin antibody clone Kro22 (humanized AB clone Kro22.2 / Kro22.6) (antibody, V domains shown)
VH: QVQLVQSGAEVKKPGASVKVSCKASGYTFTSYWMHWVRQAPGQGLEWIGNIYPGSGSTFYDEKFKGRATLTVDTSISTAYMELSRLRSDDTAVYYCTRRNYVTGFDYWGQGTTVTVSS
VL: DIQLTQSPSFLSASVGDRVTITCKSSQSVLYSSNQKNYLAWYQQKPGKAPKLLIYWASTRESGVPSRFSGSGSGTEFTLTISSLQPEDFATYYCHQYLSSYTFGQGTKLEIK

Legend:
Assay in all cases: SPR (Biacore)
Endoglin_10 = molecular target: Endoglin_10
Endoglin_23 = molecular target: Endoglin_23
endoglin (CD105) = molecular target: T1, endoglin (CD105)

| Binder | Kd (Endoglin_10) [nM] | Kd (Endoglin_23) [nM] | Kd (endoglin (CD105)) [nM] |
| --- | --- | --- | --- |
| B1 | 23.5 | 64 |  |
| B2 |  |  | 2.44 |
